Assay results: article PMC3582359 (Molecular cell, 2012)

B1: oxidized recombinant NPGPx (19-187) (natural protein, human, UniProt Q96SL4 19-187, looked up)
chain: AQQEQDFYDFKAVNIRGKLVSLEKYRGSVSLVVNVASECGFTDQHYRALQQLQRDLGPHHFNVLAFPCNQFGQQEPDSNKEIESFARRTYSVSFPMFSKIAVTGTGAHPAFKYLAQTSGKEPTWNFWKYLVAPDGKVVGAWDPTVSVEEVRPQITALVRKLILLKREDL
modifications: single disulfide bond between Cys57 and Cys86

Assays:
[1] = biological target: GFP-250, a chimera of GFP with the cytosolic protein p115; test: co-IP
[2] = biological target: recombinant GRP78 (19-654) Cys41 to Ala mutant (human, UniProt P11021 19-654, Cys41 (Cys to Ala)); test: cross-linking
[3] = biological target: recombinant GRP78 (19-654) Cys420 to Ala mutant (human, UniProt P11021 19-654, Cys420 (Cys to Ala)); test: cross-linking

Molecule | fold more GFP-250 interacting with GRP78 in WT MEFs than in NPGPx-/- MEFs [1] [fold] | binding result [2] | binding result [3]
GRP78 (glucose-regulated protein 78), endogenous in mouse embryonic fibroblasts (from UniProt P20029 20-655) (natural protein) | 3 | – | –
B1 | – | binds | binds
